Consider two molecules from PMC11706625, “Structural and bioinformatics analyses identify deoxydinucleotide-specific nucleases and their association with genomic islands in gram-positive bacteria” (Nucleic Acids Research, 2025).

Series [1] has as its target NrnC from Bartonella henselae (Bartonella henselae). Description: SEC-MALS; 1-2 mg/ml (~40-80 uM) protein injected on Superdex 200 Increase 10/300 GL in 25 mM HEPES-NaOH, 150 mM NaCl pH 7.5, room temperature. A general note: In gel filtration, larger molecules generally elute earlier.
Series [2] deals with the molecule itself. The description is as above.

What is called stoichiometry N is the number of molecules, sites or subunits per partner or assembly.

In series [1], NrnC from Bartonella henselae (enzyme) came in with a stoichiometry N of 8.

B1: NrnC homolog from Okeania (Cyanobacteria) (enzyme)
chain: MSDFQVCDRDLTEAILSDYLQADSIAVDTETMGLLPWRDRLCLVQLCDAQGKVTAIRIEKGQQEAPNLKQLMEATGIVKIFHFARFDVAMLQHHLDIKVSPIFCTKIASKLARTYTGKHGLKDLVMELEKVELDKSAQSSDWGNAENLTEEQLSYAANDVRYLLSVKEKLIKMLKREERWELAQQCFECLPVFVGLDLLQYKDIFEH
In the case of B1, in series [2], the “stoichiometry N” value worked out at 8.
